{
  "source": "the RNAGym collection of RNA variant scans (doi:10.7554/elife.80360)",
  "parents": {"B1": {"name": "HDV Ribozyme (parent)", "chain": "GGCCGGCAUGGUCCCAGCCUCCUCGCUGGCGCCGGCUGGGCAACAUUCCGAGGGGACCGUCCCCUCGGUAAUGGCGAAUGGGACCCA"}},
  "data": [
    {"variants_of": "B1", "assay": "self-cleavage, relative activity (ratio to wild type); higher = more cleavage; co-transcriptional", "values": [
      {"variant": "GGCCGGCAUGGUCCGAGCCUCCUCGCUGGCGCCGGCUGGGCAACAUUCCGAGCGGACCGUCCCCUCGGUAAUGGCGAAUGGGACCCA", "self-cleavage": 0.598},
      {"variant": "GGCCGGCAUGGUCCAAGCCUCCUCGCUGGCGCCGGCUGGGCAACAUUCCGAGGGGACCGCCCCCUCGGUAAUGGCGAAUGGGACCCA", "self-cleavage": 0.538},
      {"variant": "GGACGGCAUGGUCCCAGCCUCCUCGCUGGCGCCGGCUGGGCAACAUUCCGAGGGGACCGUCGCCUCGGUAAUGGCGAAUGGGACCCA", "self-cleavage": 0.0773},
      {"variant": "GGCCGGCAUGGUACCAGCCUCCUCGCUGGCGCCGGCUGGGCAACAUUCCGAGGGGACCGUCCCCUCUGUAAUGGCGAAUGGGACCCA", "self-cleavage": 0.17},
      {"variant": "GGCCGGCAUGGUCCCAGUCUCCUCGCUGGCGCCGGCUGGGCAACAUUCCGAGGGGACCGUCCCCUCGGUAAUGGCGAAAGGGACCCA", "self-cleavage": 0.178},
      {"variant": "GGCCGGCAUGGUCCCAGCCUCCUCGCUGGCCCCGGCUGGGCAACAUUUCGAGGGGACCGUCCCCUCGGUAAUGGCGAAUGGGACCCA", "self-cleavage": 0.475},
      {"variant": "GGCCGGCAUGGUCCCAGCCUCCUCGCUGGCGCCGGCUGGGCAACAUUCCGAGGGGACCGUCCCCUCGGUAAUAGCGAAUGGGUCCCA", "self-cleavage": 0.323},
      {"variant": "GGCCGGCAUGGUCCCAGCCUCCUCGCUGGCGCCGGCUGGGCAACAUUCCGUGGGGACCGUACCCUCGGUAAUGGCGAAUGGGACCCA", "self-cleavage": 0.938},
      {"variant": "GGCCGGCAUUGUCCCAGCCUCCUCGCUGGCGCCGGCUGGGCAACAUUCCGAGGGGACCCUCCCCUCGGUAAUGGCGAAUGGGACCCA", "self-cleavage": 0.857},
      {"variant": "GGCCGGCAUGUUCCCAGCCUCCUAGCUGGCGCCGGCUGGGCAACAUUCCGAGGGGACCGUCCCCUCGGUAAUGGCGAAUGGGACCCA", "self-cleavage": 0.112},
      {"variant": "GGCCGGCAUGGUCCCAGCCUCCUCGCUGGAGCCGGCUGGGCAACAUUCCGAGGGGACCGUCCCCUCGGUCAUGGCGAAUGGGACCCA", "self-cleavage": 0.491},
      {"variant": "GGCCGGCAUGGUCCCAGCCUCCUCGCUGGCGCCGGCUGGGCAACAUUCCGAGGGGACCGUCCCCUCGGUAAUGGCGAAUGGGAUCGA", "self-cleavage": 0.907},
      {"variant": "GGCCGGCAUGUUCCCAACCUCCUCGCUGGCGCCGGCUGGGCAACAUUCCGAGGGGACCGUCCCCUCGGUAAUGGCGAAUGGGACCCA", "self-cleavage": 0.45},
      {"variant": "GGCCCGCAUGGUCCCAGCCUCCUCGCUGGCGCCGGCUGGGCAACAUUCCGAGGGGAACGUCCCCUCGGUAAUGGCGAAUGGGACCCA", "self-cleavage": 0.111},
      {"variant": "GGCCGGCAUGGUCCCAGCCUCCUCGCUGGCGCCGGCUGGGCAAGAUUCCGAGGGGACCGUCCCCUCGGUAAUGGCGACUGGGACCCA", "self-cleavage": 0.193},
      {"variant": "GGCCGGCAUGGUCCCAGCCUCCUCGCUGGCGCCGGCUGGGCAAAAUUCCGAGGGGACCGUCCCCUCGGUAAUGGCGAAUGGGACCCC", "self-cleavage": 0.74},
      {"variant": "GGCCGGCCUGGUCGCAGCCUCCUCGCUGGCGCCGGCUGGGCAACAUUCCGAGGGGACCGUCCCCUCGGUAAUGGCGAAUGGGACCCA", "self-cleavage": 0.237},
      {"variant": "AGCCGGCAUGGUCCCAGCCUCCUCGCUGGCGCCGGCUGGGCAACAUUCCGAGGGGAACGUCCCCUCGGUAAUGGCGAAUGGGACCCA", "self-cleavage": 0.208},
      {"variant": "GGCCGGCAUGGUCCCAGCCUCCCCGCUGGCGCCGGCUGGGCAACAUUCCGAGGGUACCGUCCCCUCGGUAAUGGCGAAUGGGACCCA", "self-cleavage": 1.08},
      {"variant": "GGCUGGCAUGGUCCCAGCCUCCUCGCUGGCACCGGCUGGGCAACAUUCCGAGGGGACCGUCCCCUCGGUAAUGGCGAAUGGGACCCA", "self-cleavage": 0.163},
      {"variant": "GGCCGGCAUGGUCCCAGCCUCCUAGCUGGCGCCGGCUGGGCAACAUUCCGAGGGGACCGUCCCCUCGGUAAUGGCCAAUGGGACCCA", "self-cleavage": 0.936},
      {"variant": "GGCCGGCAUGGUCCCACCCUCCUCGCUGGCGCCGGCUGGGCAACAUUCCGAGGGGACCGUCCGCUCGGUAAUGGCGAAUGGGACCCA", "self-cleavage": 0.244},
      {"variant": "GGCCGCCAUGGUCCCAGCCUCCUCGCUGGCGCCGGCUGGGCAACAAUCCGAGGGGACCGUCCCCUCGGUAAUGGCGAAUGGGACCCA", "self-cleavage": 0},
      {"variant": "GGCAGGCAUGGUCCCAGCCUUCUCGCUGGCGCCGGCUGGGCAACAUUCCGAGGGGACCGUCCCCUCGGUAAUGGCGAAUGGGACCCA", "self-cleavage": 0.0346},
      {"variant": "GGCCGGCAUGGUCCCAGCCUCCUCGCUGGCGCCGGCUGGGCAACAUUCCGAGGGGACCGUCCGCUCGGUAAUGGCGGAUGGGACCCA", "self-cleavage": 0.268},
      {"variant": "GGCCGGAAUGGUCCCAGCCUCCUCGCUGGCGCCGGCUGGGCAACAUUCCGAGGGGAACGUCCCCUCGGUAAUGGCGAAUGGGACCCA", "self-cleavage": 0.597},
      {"variant": "GGCCGGCAUGGUUCCAGCCGCCUCGCUGGCGCCGGCUGGGCAACAUUCCGAGGGGACCGUCCCCUCGGUAAUGGCGAAUGGGACCCA", "self-cleavage": 0.135},
      {"variant": "GGCCGGCAUGGUCCCAGCCUCCUCGCUGGCGCCGGCUGGGCAACAUUCCGAGGGGACCGUCCCUUCGGUAAUGGCCAAUGGGACCCA", "self-cleavage": 0.905},
      {"variant": "GGCCGGCGUGGUCCCAGCCUCCGCGCUGGCGCCGGCUGGGCAACAUUCCGAGGGGACCGUCCCCUCGGUAAUGGCGAAUGGGACCCA", "self-cleavage": 0.776},
      {"variant": "GGCCGGCAUGGUCCCCGCCUCCUCGCUGGCGCCGGCUGGGCAACAUUCCGAGGGGACCGUCCCCUCGGUAAGGGCGAAUGGGACCCA", "self-cleavage": 0.237},
      {"variant": "GGCCGGCAUGGUCCCAGCCGCCUCGCUGGCGCCGGCUGGGCAACAUUCCGAGGGGACCGUCCCCUCGGUAAUGGCGAAUGGGAACCA", "self-cleavage": 0.222},
      {"variant": "GGCCGGCAUGGUCCCAGCCUCCUCGCUGGCGCCGGCUGGGCAACAUUCCGAGGGGACCGUCCCCUCGGCAAUGGCGAAUGGCACCCA", "self-cleavage": 0.361}
    ]}
  ]
}
